Laboratory results published in patent US20160002348A1.

Molecular target: properdin-bound C3b (human) (UniProt P27918)
Test: ELISA, factor B titrated on C3b-coated plates with properdin

human factor B, sequence (P00751 other isoform, or with tags, fused parts or gaps limits assumed): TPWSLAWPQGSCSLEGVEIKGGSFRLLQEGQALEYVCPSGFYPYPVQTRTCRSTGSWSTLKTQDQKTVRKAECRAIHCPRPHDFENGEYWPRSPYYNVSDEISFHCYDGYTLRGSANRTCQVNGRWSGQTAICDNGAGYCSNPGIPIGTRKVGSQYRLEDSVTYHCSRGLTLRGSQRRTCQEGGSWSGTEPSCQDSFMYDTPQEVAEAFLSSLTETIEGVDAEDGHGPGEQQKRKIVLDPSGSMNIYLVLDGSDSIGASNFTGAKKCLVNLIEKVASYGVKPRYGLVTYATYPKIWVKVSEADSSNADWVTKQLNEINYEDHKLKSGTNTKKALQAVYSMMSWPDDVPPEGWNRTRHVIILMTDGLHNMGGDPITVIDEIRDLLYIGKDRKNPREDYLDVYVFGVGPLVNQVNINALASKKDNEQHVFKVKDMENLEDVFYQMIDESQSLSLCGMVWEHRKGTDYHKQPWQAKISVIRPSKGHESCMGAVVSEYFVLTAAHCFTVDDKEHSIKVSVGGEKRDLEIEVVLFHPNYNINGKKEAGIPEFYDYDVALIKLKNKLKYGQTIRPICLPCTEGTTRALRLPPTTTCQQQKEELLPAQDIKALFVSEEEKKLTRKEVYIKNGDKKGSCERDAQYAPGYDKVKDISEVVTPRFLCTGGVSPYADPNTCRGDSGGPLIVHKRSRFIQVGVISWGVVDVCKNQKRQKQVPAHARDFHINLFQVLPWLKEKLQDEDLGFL

Kd: 1.11 nM
Substance: human factor B (from UniProt P00751 26-764) (enzyme)
